Data as given in patent US12552837B2, “Bicyclic peptide ligands with detectable moieties and uses thereof” (BicycleRD Limited, priority 2017, dated 2026).
*1 amine or outer side, *2 acyl side, *3 side chain or, on linkers, in order; H or OH if unused. Where a SMILES comes first, the peptide text is derived from it. Bridges are numbered along the chain shown (N, C = ends). Where no end group is shown, it is not given here. [ ]: non-standard residue; d: D form. The star is where a group is joined. DOTA = O=C(O)CN1CCN(CC(=O)O)CCN(CC(=O)*)CCN(CC(=O)O)CC1; 1Nal = N[C@@H](Cc1cccc2ccccc12)C(=O)O; TBMB = c1c(C[*:1])cc(C[*:3])cc1C[*:2]; hArg = N=C(N)NCCCC[C@H](N)C(=O)O; Tle = CC(C)(C)[C@H](N)C(=O)O; Aib = CC(C)(N)C(=O)O; βAla = NCCC(=O)O; Sar = CNCC(=O)O

Tests used:
[1] = tested on: xenograft tumor; experiment: μPET imaging with 68Ga-labelled Bicycle peptides in xenograft mice; format: in vivo; conditions: 150 pmoles
Experimental: General method for μPET imaging: the mice were anaesthetized (2% sevoflurane, Abbott), placed into the small animal PET scanner (Inveon PET, Siemens) and injected with 68Ga-labeled Bicycle peptides. A 20 min transmission scan, a 50 min dynamic scan and a static scan from 100 to 120 min p.i. were performed. Images were reconstructed iteratively using the space alternating generalized expectation maximization method (SAGE, 16 subsets, 4 iterations) applying median root prior correction and were converted to standardized uptake value (SUV) images. Quantitation was done using a ROI (region of interest) technique and expressed as SUVmean.
General method for radiolabeling with Ga-68: ^68Ga (half-life 68 min; β^+ 89%; Eβ+max. 1.9 MeV) was obtained from a in house ^68Ge/^68Ga generator based on pyrogallol resin support. 1 GBq ^68Ga was eluted using 5.5 M HCl. The activity was trapped on a small anion-exchanger cartridge (AG1X8, Biorad, Richmond, CA, USA) as [^68Ga]GaCl4^−. The radiogallium was eluted from the cartridge in a final volume of 300 μL ultrapure water (Merck, Darmstadt, Germany) as [^68Ga]GaCl3.
1 nmol Bicycle peptide in 1 μL DMSO was added to a mixture of 50 μL 0.05 M HEPES, 0.1% Tween-20, and 80 μL [^68Ga]Ga^3+ eluate (˜200 MBq). The pH of the labelling solution was adjusted to 4.2 using 30% NaOH. The reaction mixture was incubated at 98° C. for 10 minutes. The radiochemical yield (RCY) was determined using reversed-phase high performance liquid chromatography (RP-HPLC; Chromolith RP-18e, 100×4.6 mm; Merck, Darmstadt, Germany). The analytical HPLC run was performed using a linear A-B gradient (0% B to 100% B in 6 min) at a flow rate of 4 mL/min. Solvent A consisted of 0.1% aqueous TFA and solvent B was 0.1% TFA in CH3CN.
For μPET imaging, the labelling reaction mixture was diluted in injection buffer (0.25 M Na-Acetate 0.05% Tween-20 pH 7) by a factor of 6 to obtain 150 pmoles in 100 μL injection buffer. The anaesthetized mouse (2% sevoflurane, Abbott) was injected with 100 μL of ^68Ga-labelled I-23 (˜25 MBq) and placed in a small animal PET scanner (Inveon PET, Siemens). The imaging was performed 60 min post-injection and included a 15 min transmission scan before injection and a 60 min emission scan post-injection. Scans from μPET imaging were reconstructed iteratively using the space alternating generalized expectation maximization method (SAGE, 16 subsets, 4 iterations) applying median root prior correction and were converted to standardized uptake value (SUV) images. Quantitation was accomplished using an ROI (region of interest) technique and expressed as SUVmean.
The radiolabelling with Ga-68 was done as described before. […] Quantitation was accomplished using an ROI (region of interest) technique and expressed as SUVmean. […]

[2] = target: integrin αvβ3 (Homo sapiens, UniProt P05106+P06756); conditions: bicyclic peptide formed with TBMB; as described in UK provisional application P2122; read-out: Ki of αvβ3 binder; cited from earlier work
[3] = target: human CAIX (Homo sapiens, UniProt Q16790); conditions: bicyclic peptide formed with TBMB; as described in UK provisional application P2120; read-out: Kd of CAIX binder; cited from earlier work
[4] = target: MT1-MMP hemopexin domain (Homo sapiens, UniProt P50281); conditions: bicyclic peptide formed with TBMB; as described in WO 2016/067035; read-out: Kd of MT1-MMP binder; cited from earlier work

Chain of integrin αvβ3 (P06756 31-889 limits assumed): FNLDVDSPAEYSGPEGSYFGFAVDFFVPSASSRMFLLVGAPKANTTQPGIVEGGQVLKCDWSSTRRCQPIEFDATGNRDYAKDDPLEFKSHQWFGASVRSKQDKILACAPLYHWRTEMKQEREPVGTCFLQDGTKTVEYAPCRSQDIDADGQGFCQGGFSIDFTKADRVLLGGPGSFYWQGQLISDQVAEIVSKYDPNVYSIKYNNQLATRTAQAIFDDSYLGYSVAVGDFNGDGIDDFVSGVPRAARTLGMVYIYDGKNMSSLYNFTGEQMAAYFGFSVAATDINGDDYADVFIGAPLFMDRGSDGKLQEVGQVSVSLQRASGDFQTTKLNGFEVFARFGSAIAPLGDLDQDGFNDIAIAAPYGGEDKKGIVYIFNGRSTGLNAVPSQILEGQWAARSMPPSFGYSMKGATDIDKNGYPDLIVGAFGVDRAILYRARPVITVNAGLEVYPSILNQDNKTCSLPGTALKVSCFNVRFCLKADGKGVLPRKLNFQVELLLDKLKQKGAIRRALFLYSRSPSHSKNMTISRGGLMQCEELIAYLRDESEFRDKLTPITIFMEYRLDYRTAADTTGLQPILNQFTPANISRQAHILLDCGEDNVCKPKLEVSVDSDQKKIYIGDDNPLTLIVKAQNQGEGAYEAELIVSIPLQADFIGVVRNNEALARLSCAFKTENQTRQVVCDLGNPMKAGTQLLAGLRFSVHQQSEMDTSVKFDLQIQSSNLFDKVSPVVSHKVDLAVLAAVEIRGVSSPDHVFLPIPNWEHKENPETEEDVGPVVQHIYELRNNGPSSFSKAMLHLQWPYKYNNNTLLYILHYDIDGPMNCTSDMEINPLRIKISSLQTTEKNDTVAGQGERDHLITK
Chain of integrin αvβ3 (P06756 891-1048 partner limits assumed): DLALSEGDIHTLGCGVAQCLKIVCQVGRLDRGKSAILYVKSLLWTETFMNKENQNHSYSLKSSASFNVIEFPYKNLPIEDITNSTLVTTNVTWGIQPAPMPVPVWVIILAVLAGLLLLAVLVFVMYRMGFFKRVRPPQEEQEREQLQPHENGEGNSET
Chain of integrin αvβ3 (P05106 27-788): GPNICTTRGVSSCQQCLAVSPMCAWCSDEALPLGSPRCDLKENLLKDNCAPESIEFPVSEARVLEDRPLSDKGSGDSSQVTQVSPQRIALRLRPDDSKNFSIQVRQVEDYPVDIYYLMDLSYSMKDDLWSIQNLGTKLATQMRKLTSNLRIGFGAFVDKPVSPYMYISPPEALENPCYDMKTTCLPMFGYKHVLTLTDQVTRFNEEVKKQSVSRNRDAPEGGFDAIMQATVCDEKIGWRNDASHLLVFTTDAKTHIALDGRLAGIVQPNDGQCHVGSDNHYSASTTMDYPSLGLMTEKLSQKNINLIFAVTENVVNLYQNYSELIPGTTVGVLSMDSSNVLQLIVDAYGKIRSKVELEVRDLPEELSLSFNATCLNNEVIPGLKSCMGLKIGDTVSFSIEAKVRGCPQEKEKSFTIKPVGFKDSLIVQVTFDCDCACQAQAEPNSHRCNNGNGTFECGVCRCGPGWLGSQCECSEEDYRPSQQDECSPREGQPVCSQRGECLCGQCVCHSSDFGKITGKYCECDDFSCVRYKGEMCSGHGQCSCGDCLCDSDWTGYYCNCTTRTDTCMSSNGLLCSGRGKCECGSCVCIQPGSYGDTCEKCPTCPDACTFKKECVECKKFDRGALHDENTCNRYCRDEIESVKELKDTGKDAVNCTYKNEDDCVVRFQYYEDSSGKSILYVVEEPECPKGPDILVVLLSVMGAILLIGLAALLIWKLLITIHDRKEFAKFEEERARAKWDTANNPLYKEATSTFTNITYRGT

With `CC(C)[C@H](NC(=O)[C@@H](CC(=O)O)NC(=O)[C@H](Cc1c[nH]cn1)NC(=O)CN(C)C(=O)CN(C)C(=O)CN(C)C(=O)CN(C)C(=O)CN(C)C(=O)CN(C)C(=O)CN(C)C(=O)CN(C)C(=O)CN(C)C(=O)CN(C)C(=O)CCNC(=O)CN1CCN(CC(=O)O)CCN(CC(=O)O)CCN(CC(=O)O)CC1)C(=O)N1CCC[C@H]1C(=O)N[C@H]1CSCc2cc3cc(c2)CSC[C@H](NC(=O)[C@H](Cc2cccc4ccccc24)NC(=O)[C@H](Cc2ccccc2)NC(=O)C(C)(C)NC(=O)CNC(=O)[C@H](Cc2cccc4ccccc24)NC(=O)C(C)(C)NC1=O)C(=O)N1CCC[C@H]1C(=O)N[C@@H](C(C)(C)C)C(=O)N[C@@H](CC(N)=O)C(=O)N[C@@H](CCCCNC(=N)N)C(=O)N1CCC[C@H]1C(=O)N[C@H](CC(=O)O)C(=O)N[C@H](C(N)=O)CSC3` [I-15] ({DOTA-βAla}-[Sar][Sar][Sar][Sar][Sar][Sar][Sar][Sar][Sar][Sar]H[dD]VPC[Aib][1Nal]G[Aib]F[1Nal]CP[Tle]N[hArg]P[dD]C-NH2; linker 15-22-29 via TBMB) the “liver uptake in PET imaging” value [1] was “clearly reduced liver uptake” and the “tumor signal in PET imaging” value [1] was “extremely high”.
In the case of “Ac-CIL(HArg)PNCDLDGRCA-Sar6-(D-K) [compound 5, "peptide 5"]”, the Ki [2] is given as 15 nM.
In the case of “βA1a-Sar10-A-CTECWVDGWVPC [compound 3, "peptide 3"]”, the Kd [3] is given as 10 nM.
In the case of “βAla-Sar10-A-C(D-Ala)NE(1Nal)(D-Ala)CEDFYD(tBuGLy)C ([βAla][Sar][Sar][Sar][Sar][Sar][Sar][Sar][Sar][Sar][Sar]AC[dA]NE[1Nal][dA]CEDFYD[Tle]C; linker 13-19-26 via TBMB) [17-69-07-N241, "peptide 1 (17-69-07-N241)"]”, the Kd [4] is listed as 1.2 nM.
